Laboratory results from article PMC11211491, “Design of a covalent protein-protein interaction inhibitor of SRPKs to suppress angiogenesis and invasion of cancer cells” (Communications Chemistry, 2024).
aryl‑sulfonyl fluoride = aryl-sulfonyl fluoride group, a lysine-reactive covalent warhead for SuFEx reactions

Target: SRPK1ΔNS3 (UniProt Q96SB4)

## Ac-RERARTRRK(aryl‑sulfonyl fluoride)RARTRERARTR-NH2 [DBS1-1]
  IC50 of inhibition of the phosphorylation of SRSF1 by SRPK1ΔNS3 (in vitro kinase assay, [32P]ATP); blocked pair SRPK1-SRSF1: 640 nM
